In patent US20150322167A1 (UNIVERSITY OF MASSACHUSETTS, published 2015) one finds binding result and Kd data, which are given here for eleven molecules.

The target in assay [1] is mouse SOD1 expressed in mouse neuroblastoma cells (MNA) (mouse, UniProt P08228 2-154). Nature of the assay: IP from mouse neuroblastoma (MNA) cell lysate, immunoblot rabbit anti-SOD1. (In general: In western blotting, separated proteins are transferred to a membrane and probed.)
Experimental: Expression of SOD1 in mouse neuroblastoma cells (MNA) was assessed by SDS-PAGE followed by immunoblot with rabbit anti-SOD1 (lysate). The position of migration of SOD1 as well as position of a non-specific high molecular weight (HMW) band is indicated to the right of the immunoblots. MNA lysates were precipitated with 11 human anti-hSOD1 antibodies as well as a control, isotype matched irrelevant antibody (Neg control) which are listed above the immunoblots.
Assay [2] deals with T1, bacterially-expressed hSOD1 (human, UniProt P00441 2-154).
T1 construct: Not fully metallated, expected to be partly misfolded; also called b-hSOD1; GST-b-hSOD1; not shown: N-terminal glutathione sulfotransferase (GST) domain from vector pGEX-4T-3
Nature of the assay: Octet QK, hSOD1 coupled to biosensor, antibody in solution. In general terms: In BLI a coated tip is dipped into the sample, and binding shifts an interference pattern.

Assay [3] addresses T2, hSOD1 purified from human erythrocytes (human, UniProt P00441 2-154).
T2 construct: Bought from Sigma; also called E-hSOD1
The description is as above.
Experimental: Affinity of antibodies was determined using an Octet QK (ForteBio) biomolecular interaction instrument. […] The Octet QK uses biosensors to assess mass increases/decreases and determine rates of association and disassociation. A biosensor coated with amine-reactive chemistry was introduced into a solution containing E-hSOD1 or b-hSOD1 to covalently link these proteins to the surface of the biosensor. Unbound hSOD1 was washed away and the coated biosensor was introduced into a solution containing anti-SOD1 monoclonal antibodies at which time Kₒₙ was determined. The sensor was then introduced into a buffer solution containing no antibody and the Koff determined Using Kₒₙ and Koff an affinity (KD) was calculated.
Affinity analysis was performed on all 13 lead-candidate anti-hSOD1 human monoclonal antibodies.

In assay [4] the target is T3, b-hSOD1-C (amino acids 1 to 116) (human, UniProt P00441 2-117).
T3 construct: also called C truncation; not shown: N-terminal thioredoxin (trx) domain from vector pET32-a-myc; C-terminal myc and 6 histidine tags
The assay is described as follows: ELISA, captured b-hSOD1 truncations. A general note: ELISA stands for enzyme-linked immunosorbent assay.

Assay [5] addresses T4, b-hSOD1-I (amino acids 39 to 116) (human, UniProt P00441 39-117).
T4 construct: also called I truncation; not shown: N-terminal thioredoxin (trx) domain from vector pET32-a-myc; C-terminal myc and 6 histidine tags
The assay is described as follows: ELISA, captured b-hSOD1 truncations.

For assay [6], the target named is T5, b-hSOD1-D (amino acids 39 to 153) (human, UniProt P00441 40-154).
T5 construct: also called D truncation; not shown: N-terminal thioredoxin (trx) domain from vector pET32-a-myc; C-terminal myc and 6 histidine tags
Nature of the assay: ELISA, captured b-hSOD1 truncations.

For assay [7], the target named is T6, b-hSOD1-B (amino acids 1 to 77) (human, UniProt P00441 2-78).
T6 construct: also called B truncation; not shown: N-terminal thioredoxin (trx) domain from vector pET32-a-myc; C-terminal myc and 6 histidine tags
Nature of the assay: ELISA, captured b-hSOD1 truncations.

Assay [8] addresses T7, b-hSOD1-OX (oxidized with 10 mM hydrogen peroxide for 24 hours; residues not given ; Oxidised with 10 mM hydrogen peroxide for 24 hours. The oxidised residues are not stated, so the letters are left …).
T7 construct: also called oxidized bacterially-expressed hSOD1 (GST fusion); not shown: N-terminal GST domain of pGEX-4T-3 and the vector-derived linker
The assay is described as follows: ELISA on coated protein, antibody titrated, OD 405nm.

T6 sequence (P00441 2-78): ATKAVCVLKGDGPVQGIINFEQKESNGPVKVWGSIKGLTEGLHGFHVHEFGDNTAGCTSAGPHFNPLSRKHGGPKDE
T3 sequence (P00441 2-117): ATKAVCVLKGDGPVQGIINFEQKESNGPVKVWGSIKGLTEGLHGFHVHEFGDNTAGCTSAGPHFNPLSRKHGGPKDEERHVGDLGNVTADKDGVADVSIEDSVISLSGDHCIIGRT
T1 sequence (P00441 2-154): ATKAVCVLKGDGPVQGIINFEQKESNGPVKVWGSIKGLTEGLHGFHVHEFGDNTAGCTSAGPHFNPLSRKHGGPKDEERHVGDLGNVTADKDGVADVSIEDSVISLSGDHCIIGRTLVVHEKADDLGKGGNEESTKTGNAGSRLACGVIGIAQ
T2 sequence (P00441 2-154): as above
T5 sequence (P00441 40-154): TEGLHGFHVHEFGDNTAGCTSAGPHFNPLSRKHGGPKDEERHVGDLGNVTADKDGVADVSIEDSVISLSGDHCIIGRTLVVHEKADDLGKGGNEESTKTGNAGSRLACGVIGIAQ
T4 sequence (P00441 39-117): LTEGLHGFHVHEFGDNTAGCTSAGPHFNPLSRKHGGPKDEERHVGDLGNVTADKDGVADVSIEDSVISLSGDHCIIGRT
T7 sequence (chain, as listed by the source limits assumed): as the sequence (P00441 2-154) above

B1: 311-3 (antibody, V domains shown)
VH: QVQLQQWGAGLLKPSETLSLTCAVYGGSFSGYYWNWIRQPPGMGLEWIGEIHQSGGPHYNPSLKSRVSISVDTSKNQVNLKLSSVTAADTAIYYCTELDDYWGQGTLVTVSS
VL: EIVLTQSPATLSLSPGERATLSCRASQSVSSYLAWYQQKPGQAPRLLIYNASNRATGIPARFSGSGSGTDFTLTIGSLEPEDFAVYYCQQRSNWPRTFGQGTKVEIK
notes: Human IgG kappa monoclonal from HuMab mouse hybridoma
As for B1, in assay [1], the binding result was “no binding”.

B2: 358-22 (antibody, V domains shown)
VH: QVQLVESGGGVVQPGRSLRLSCAASGFTFRSYGMHWVRQAPGKGLEWVTLIWYDGSNKYYADSVKGRFTISRDNSKNTLYLQMNSLRVEDTAVYYCAREGFNWDAFDIWGQGTMVTVSS
VL: EIVLTQSPGTLSLSPGERATLSCRASQSVRISYLAWYQQKPGQAPRLLIYGTFSRATGIPDRFSGSGSGTDFTLTISRLEPEDFAVYYCQQYGSSMYTFGQGTKLEIK
notes: Human IgG kappa monoclonal from HuMab mouse hybridoma; Conformation-dependent antibody
With B2, the binding result in assay [1] is recorded as “binds”.

B3: 306-155 (antibody, V domains shown)
VH: EVQLVQSGAEVKKPGESLKISCKGSGYSFTSYWIGWVRQMPGKGLEWMGIIYPGDSDTRYSPSFQGQVTISADKSISTAYLQWSSLKASDTAMYYCARQGSGWYGNYFDYWGQGTLVTVSS
VL: EIVLTQSPGTLSLSPGERATLSCRASQSFSRGYLAWYQQKPGQAPRLLIYGASSRVTGIPDRFSGSGSGTDFTLTISRLEPEDFAVYYCQQYDSSPYTFGQGTKLEIK
notes: as for B2
Regarding B3, the binding result in assay [1] is reported as “no binding”.

B4: 312-19 (antibody, V domains shown)
VH: QVQLVQSGAEVKKPGSSVKVSCKASGGTFNNFVIGWVRQAPGQGLEWMGRIIPILDIANYAQKFQGRVTITADKSTSTVYMELNSLRSEDTAVYYCARTGNYYKPYDYWGQGTLVTVSS
VL: EIVLTQSPDFQSVTPKEKVTITCRASQSIGSSLHWYQQKPDQSPKLLIKYASQSFSGVPSRFSGSGSGTDFTLTINSLEAEDAAAYYCHQSSSLPITFGQGTRLEIK
notes: as for B2
With B4, the binding result in assay [1] is on record as “no binding”.

B5: 303-8 (antibody, V domains shown)
VH: QVQLVQSGAEVKKPGSSVKVSCKASGGSFSIYVISWVRQAPGQGLEWMGRIIPILGTTNYAQKFQGRVTITADKSTSTAYMELSSLRSEDTAVYYCARPDSPNHSNTFDYWGQGTLVTVSS
VL: DIQMTQSPSSLSASVGDRVTITCRASQGISSWLAWYQQKPEKAPKSLIYGASSLQSGVPSRFSGSGSGTDFTLTISSLQPEDFATYYCQQYNSYPYTFGQGTKLEIK
notes: as for B2
Broadly, the Kd is the free concentration of one partner at which half of the binding sites on the other are occupied at equilibrium, for simple one-to-one binding. High values mean lower affinity, low ones higher affinity. Turning to B5, the Kd in assay [2] was 1.2 nM; in assay [3], 8.8 nM. The binding result in assay [4] is recorded as “no binding”; in assay [5], “no binding”; in assay [6], “no binding”; in assay [7], “no binding”; in assay [8], “binds”.

B6: 358-11 (antibody, V domains shown)
VH: QVQLVESGGGVVQPGRSLRLSCAASGFTFSNYGIHWVRQAPGKGLEWVAIIWHDGSNSYYVDSVKGRFTMSRDNSKNTVYLQMNSLRAEDTAVYFCARIIGGAFDIWGQGTMVTVSS
VL: DIQMTQSPSSLSASVGDRVTITCRASQGISSWLAWYQQKPEKAPKSLIYAASSLQSGVPSRFSGSGSGTDFTLTISSLQPEDFATYYCQQYNSYPITFGQGTRLEIK
notes: as for B1
Take B6: the binding result in assay [1] was “no binding”.

B7: 591-37 (antibody, V domains shown)
VH: EVQLVQSGGGLVHPGGSLRLSCAGSGFTFSRYALHWVRQAPGKGLEWVSAIGIGGGTFYADSVKGRFTISRDNAKNSLYLQMNSLRAEDMAVYYCARDTYYDFFDAFDIWGQGTMVTVSS
VL: DIQMTQSPSSLSASVGDRVTITCRASQGISSWLAWYQQKPEKAPKSLIYAASSLQSGVPSRFSGSGSGTDFTLTISSLQPEDFATYYCQQYDSYPLTFGGGTKVEIK
notes: as for B1
On to B7, for which the binding result in assay [1] was “no binding”.

B8: 114-41 (antibody, V domains shown)
VH: QVQLVQSGAEVKTPGASVKVSCKASGYTFTSFGISWVRQAPGQGLEWMGWISVYNDYTNYAQKFQGRVTMTTDTSTSTAYMELRSLRSDDTAMYYCARKRGGDMDYWGQGTLVTVSS
VL: DIQMTQSPSSVSASVGDRVTITCRASQDISSWLAWYQHKPGKAPKLLIYLASSLQSGVPSRFSGSGSGTDFTLTISSLQPEDFATYYCQQANSFPWTFGQGTKVEIK
notes: as for B2
In the case of B8, the binding result in assay [1] is reported as “no binding”.

B9: 591-33 (antibody, V domains shown)
VH: EVQLVESGGGLVQPGGSLRLSCAASGFTFSRYWMSWVRQAPGKGLEWMANIKQDGSETHYVDSVKGRFTISRDNAKNSLYLQMNSLRAEDTAVYYCAIGDYWGQGTLVTVSS
VL: DIQMTQSPSSLSASVGDRVTITCRASQDISSWLAWYQQKPEKAPKSLIYAASSLQSGVPSRFSGSGSGTDFTLTISSLQPEDFATYYCQQYKSYPLTFGGGTKVEIK
notes: as for B1
On to B9, for which the binding result in assay [1] is “no binding”.

B10: 14-173 (antibody, V domains shown)
VH: EVQLVESGGGLVQPGGSLRLSCAASGFTFSSFWMSWVRQAPGKGLEWVANIKHDGSEQDYVDSVKGRFTISRDNAKNSLYLQMNSLRAEDTAVYYCARGGIWFGPWGQGTLVTVSS
VL: VIWMTQSPSLLSASTGDRVTISCRMSQGISSYLAWYQQKPGKAPEVLIYAVSTLQSGVPSRFSGSGSGTDFTLTISCLQSEDFATYYCQQYYSFPYTFGQGTKLEIK
notes: as for B2
As for B10, the values for the Kd in assay [2] and in assay [3] were 19 nM and 3.5 nM, respectively. Moreover, the binding result in assay [4] is “no binding”; in assay [5], “no binding”; in assay [6], “no binding”; in assay [7], “no binding”; in assay [1], “binds”.

B11: 597-120 (antibody, V domains shown)
VH: EVHLVESGGGLVQSGGSLRLSCAASGFSISGYWMSWVRQAPGKGLEWVANIKQDGGEKYYGDSVKGRFTISRDNAENSLYLQMSSLRAEDTAVYYCVMAGGLDYWGQGALVTVSS
VL: EIVLTQSPATLSLSPGERATLSCRASQSVSSYLAWYQQKPGQAPRLLIYDASNRATGIPARFSGSGSGTDFTLTISSLEPEDFAVYYCQQRSNWYTFGQGTKLEIK
notes: as for B2
With B11, the binding result in assay [1] is listed as “no binding”.
